Experimental data taken from the nanobody polyreactivity screen of Harvey et al. (2022).

Experiment: yeast display, Sf9 membrane polyspecificity reagent, FACS + sequencing; frameworks hold sequencing errors
Outline: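 Galactose induction of a Saccharomyces cerevisiae BJ5465 synthetic nanobody display library ran 36–48 hours. The cells were then stained for 1 hour at 4 °C with 10% biotinylated, detergent-solubilized Sf9 membrane reagent, pulled down on streptavidin microbeads and FACS-sorted into low and high (top ~1%) gates on expression and reagent-binding fluorescence. Labels for polyreactivity follow the gate of origin.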
With “QVQLVESGGGLVQAGGSLRLSCAASGGTFSSNAMGWYRQAPGKERELVAAISGSGDRTYYADSVKGRFTISRDNAKNTVYLQMNSLKPEDTAVYYCAAEHETGAYYYWGQGTQVTVSS” the “polyreactivity (PSR sort gate)” value was “high polyreactivity”.
For “QVQLVESGGGLVQAGGSLRLSCAASGGTFSTYAMGWYRQAPGKERELVAAISSTGGSTYYADSVKGRFTISRDNAKNTVYLQMNSLKPEDTAVYYCAAYYSRGWLLYWDEMYYWGQGTQVTVSS”, the “polyreactivity (PSR sort gate)” value was “high polyreactivity”.
In the case of “QVQLVESGGGLVQAGGSLRLSCAASGGTFTFKTMGWYRQAPGKERQLVAAISISGGSTYYADSVKGRFTISRDNAKNTVYLQMNSLKPEDTAVYYCAAQYVRTPSPEYDYWGQGTQVTVSS”, the “polyreactivity (PSR sort gate)” value was “high polyreactivity”.
With “QVQLVESGGGLVQAGGSLRLSCAASGGTFTFYAMGWYRQATGKERELVATINWSGGSTYYADSVKGRFTISRDNAKNTVYLQMNSLKPEDTAVYYCNAAWPYKSVEYWGQGTQVTVSS” the “polyreactivity (PSR sort gate)” value was “low polyreactivity”.
In the case of “QVQLVESGGGLVQAGGSLRLSCAASGGTFTYYTKGWYRQAPGKERELVAAISTGGRTYYADSVKGRFTISRDNAKNTVYLQMNSLKPEDTAVYYCNADYDETDVLGEFDYWGQGTQVTVSS”, the “polyreactivity (PSR sort gate)” value was “low polyreactivity”.
For “QVQLVESGGGLVQAGGSLRLSCAASGGTFVANTMGWYRQAPGKERELVAAITWSGGRTYYADSVKGRFTISRDNAKNTVYLQMNSLKPEDTAVYYCNADYYRKAESSPEGYDYWGQGTQVTVSS”, the “polyreactivity (PSR sort gate)” value was “high polyreactivity”.
With “QVQLVESGGGLVQAGGSLRLSCAASGGTFVLNAMGWYRQAPGKERELVATISSGGGTDYADSVKGRFTISRDNAKNTVYLQMNSLKPEDTAVYYCNTDYILWGDYDYWGQGTQVTVSS” the “polyreactivity (PSR sort gate)” value was “low polyreactivity”.
For “QVQLVESGGGLVQAGGSLRLSCAASGGTFVTYAMGWYRQAPGKERELVAAITTGGSTYYADSVKGRFTISRDNAKNSVYLQMISLKPEDTAVYYCAAVYTGSGKRYYKGYYWGQGTQVTVSS”, the “polyreactivity (PSR sort gate)” value was “low polyreactivity”.
For “QVQLVESGGGLVQAGGSLRLSCAASGGTFVVYAMGWYRQAPGKEREFVAGISWGGGRTYYADSVKGRFTISRDNAKNPVYLQMNSLKPEDTAVYYCAVRREIQYYRKFDYWGQGTQVTVSS”, the “polyreactivity (PSR sort gate)” value was “low polyreactivity”.
With “QVQLVESGGGLVQAGGSLRLSCAASGGTFVYNAMGWYRQAPGKERELVAAIRVRGDTTYYADSVKGRFTISRDNAKNTVYLQMNSLKPEDTAVYYCAAYPDYSYYYWGQGTQVTVSS” the “polyreactivity (PSR sort gate)” value was “high polyreactivity”.
In the case of “QVQLVESGGGLVQAGGSLRLSCAASGGTFVYYAMGWYRQAPGKERELVAAISGSGGRTYYADSVKGRFTISRDNAKNTVYLQMNSLKPEDTAVYFCAAVHLNRYWGQGTQVTVSS”, the “polyreactivity (PSR sort gate)” value was “high polyreactivity”.
For “QVQLVESGGGLVQAGGSLRLSCAASGGTFVYYTMGWYRQAPGKERELVAAISGRGGRTYYADSVKGRFTISRDNAKQTVYLQMNSLKPEDPAVYYCTATQIGPYYLPFDSWGQGTQVTVSS”, the “polyreactivity (PSR sort gate)” value was “high polyreactivity”.
In the case of “QVQLVESGGGLVQAGGSLRLSCAASGGTFWIYAMGWYRQAPGKERELVAGISHGDSTYYADSVKGRFTISRDNAKNTVYLQMNSLKPEDTAVYYCARDYRNPPFAYEYWGQGTQVTVSS”, the “polyreactivity (PSR sort gate)” value was “low polyreactivity”.
In the case of “QVQLVESGGGLVQAGGSLRLSCAASGGTFWKYPMGWTRQAPGKERELVAAITWSGSSTYYADSVKGRFTISRDNAKNTVYLQMNSLKPEDTAVFYCAARYQPRKGAHYGYWGQGTQVTVSS”, the “polyreactivity (PSR sort gate)” value was “high polyreactivity”.
In the case of “QVQLVESGGGLVQAGGSLRLSCAASGGTFWSYAMGLYRQAPGKEREFVAAITTSAGRTNFADSVKGRFTISRDNAKNTFYLQMNSLKPEDTAVYYCAARSAYPGLGYGFDYWGQGTQVTVSS”, the “polyreactivity (PSR sort gate)” value was “low polyreactivity”.
In the case of “QVQLVESGGGLVQAGGSLRLSCAASGGTFYGYAMGWYRQAPGKERELVAASNYRGGRTYYADSVKGRFTISRDNAKNTGYLQMNSLKPEDTAVYYCAATSYRLDGYDYWGQGTQVTVSS”, the “polyreactivity (PSR sort gate)” value was “high polyreactivity”.
In the case of “QVQLVESGGGLVQAGGSLRLSCAASGGTFYHNVMGWYRQAPGKERELVAAIRYSGGRTYYADSVKGRFTISRDNAKNTVYLQMNSQKPEDTAVYYCAVRSYYGPFGYWGQGTQVTVSS”, the “polyreactivity (PSR sort gate)” value was “high polyreactivity”.
With “QVQLVESGGGLVQAGGSLRLSCAASGGTFYHYAMGWYRQAPGKERELVAAISWGGGSTYYADSVKGRFTISRDNAKNTVYLQMNSLKPEHTAVYYCAARRGFRFRDYYWGQGTQVTVSS” the “polyreactivity (PSR sort gate)” value was “high polyreactivity”.
In the case of “QVQLVESGGGLVQAGGSLRLSCAASGGTFYKYAMGWYRQAPGKERELVAAISRSGGSTYYADSVKGRFTISRDNAKNTVYLQMNSLKPEDTAVYYCNAYGSYWDFDYWGQGTQVTVSS”, the “polyreactivity (PSR sort gate)” value was “high polyreactivity”.
With “QVQLVESGGGLVQAGGSLRLSCAASGGTFYLNAMGWYRQAPGKERELVAAISKRSSTTYYADSVKGRFTISRDNAKNTVYLQMNSLKPEDTAVYYCAAEYFDWWVTYDYWGQGTQVTVSS” the “polyreactivity (PSR sort gate)” value was “high polyreactivity”.
With “QVQLVESGGGLVQAGGSLRLSCAASGGTFYPYAMGWYREAPGKEWELVAAISTSGGITYYADSVKGRFTISRDNAKNTVYLQMNSLKPEDTAVYYCAKVLRDYYTYYRWQYREFGYWGQGTQVTVSS” the “polyreactivity (PSR sort gate)” value was “high polyreactivity”.
For “QVQLVESGGGLVQAGGSLRLSCAASGGTFYTNVMGWYRQAPGKERELVAAITRSGGSTHYADSVKGRFTISRDNAKNTVYLQMNSLKPEDTAVYYCAVGSPYYDGMDYWGQGTQVTVSS”, the “polyreactivity (PSR sort gate)” value was “low polyreactivity”.
For “QVQLVESGGGLVQAGGSLRLSCAASGGTFYTYAMGWYRQAPGKERELVAAISRSGGRTYYADSVKGRFTISRDNAKNTVYLQMNSLKPEDTAVYYCAAVRIARAVQDYDYWGQGTQVTVSS”, the “polyreactivity (PSR sort gate)” value was “high polyreactivity”.
With “QVQLVESGGGLVQAGGSLRLSCAASGGTFYVYAMGWYRQAPGKERELVAAISTSDGITYYADSVKGRFTISRDNAKNTVYLQMNSLNPEDTAVYYCAAVFFSSFTYAYDYWGQGTLVTVSS” the “polyreactivity (PSR sort gate)” value was “high polyreactivity”.
For “QVQLVESGGGLVQAGGSLRLSCAASGGTIAYNAMGWYRQAPGKERELVAAISSSGGRTYYADSVKGRFTISRDNAKNTVYLQMNSLKPEDTAVYFCATPVNNGFDYWGQGTQVTLSS”, the “polyreactivity (PSR sort gate)” value was “high polyreactivity”.
For “QVQLVESGGGLVQAGGSLRLSCAASGGTIDNAMGWYRQAPGKERELVAAISKHGGRTYYADSVKGRFTISRDNAKNTVYLQMNSLKAEDTAVYYCAADAFRGFFWGQGTQVTVSS”, the “polyreactivity (PSR sort gate)” value was “high polyreactivity”.
In the case of “QVQLVESGGGLVQAGGSLRLSCAASGGTIEYYAMGWYRQAPEKERELVAAISVSGGRTYYADSVKGRFTISRDNAKNTVYLQMNSLKPEDTAVYYCATDSRLWGQGTQVTVSS”, the “polyreactivity (PSR sort gate)” value was “high polyreactivity”.
For “QVQLVESGGGLVQAGGSLRLSCAASGGTIHSYAMGLYRQANGKERDLVAAISGSGGSTYYADSVKGRFTISRDNAKNTFYLQMNSLKPEDTAVYYCAARDWGDGSEYYYWGQGTQVTVSS”, the “polyreactivity (PSR sort gate)” value was “high polyreactivity”.
In the case of “QVQLVESGGGLVQAGGSLRLSCAASGGTLYLYAMGWYRPAPGKERELVAAISYNGGSTYADSVKGRFTISRDNAKNTVYLQMNSLKPEDTAVYYCAADRSPRCLGGYWGQGTQVTVSS”, the “polyreactivity (PSR sort gate)” value was “low polyreactivity”.
With “QVQLVESGGGLVQAGGSLRLSCAASGGTLYRYAMGWYRQAPGKERELVAGISSSGGRTYYADSVKGRFTISRDNAKNTVYLQMNSLKPEDTAVYYCAKYWVSSYDYWGQGNQVTVSS” the “polyreactivity (PSR sort gate)” value was “high polyreactivity”.
With “QVQLVESGGGLVQAGGSLRLSCAASGGTQRYYAMGWYRQAPGKEREFVASISRSGGSTYYADSVKGRFTISRDNAKNTVYLQMNSLKPEDTAVYYCAAYWSPGYTTRRGYWGQGTQVTVSS” the “polyreactivity (PSR sort gate)” value was “high polyreactivity”.
For “QVQLVESGGGLVQAGGSLRLSCAASGGTSYAYTMGWYRQAPGKERELVAAISGSTGSTYYADSVKGRFTISRDNAKNTVYLQMNSLKPEDTAVYYCNADISSLYSLSWFRYWYDYWGQGTQVTVSS”, the “polyreactivity (PSR sort gate)” value was “low polyreactivity”.
In the case of “QVQLVESGGGLVQAGGSLRLSCAASGGTYGTNAMGWYRQAPGKERELVAAITKTGVRTYYADSVKGRFTISRDNAKNTVYLQMNSLKPEDTAVYYCAAGNPAWPFNYWGQGTQVTVSS”, the “polyreactivity (PSR sort gate)” value was “high polyreactivity”.
With “QVQLVESGGGLVQAGGSLRLSCAASGGTYNSNAMGWYRQAPAKEREFVAAISSSGGSTYYADSVKGRFTISRDNAKNTVNLQMNSLKPEDTAVYYCAKRYPYPNCRFRFGYWGQGTQVTVSS” the “polyreactivity (PSR sort gate)” value was “high polyreactivity”.
In the case of “QVQLVESGGGLVQAGGSLRLSCAASGHIFFYYTMGWYRQAPGKERELVAGITIGGSTNYADSVKGRFTISRDNAKNTVYLQMNSVKPEDTAVYYCKVVKYVDIYSYWEYYYWGQGTQVTVSS”, the “polyreactivity (PSR sort gate)” value was “low polyreactivity”.
For “QVQLVESGGGLVQAGGSLRLSCAASGHIFPTNAMGWYRQAPGKERELVAVISESVGSTYYADSVKGRFTISRDNAKNTVYLQMNSLKPEDTAVYYCATQSRYPSLDADYDYWGQGTQVTVSS”, the “polyreactivity (PSR sort gate)” value was “low polyreactivity”.
With “QVQLVESGGGLVQAGGSLRLSCAASGHIFTRNAMGWYRQAPGKERELVAAISRTGGSTYYADSVKGRFTISRDNAKNSVYLQMNSLKPEDTAVYYCAKRRQASEDYWGQGTQVTVSS” the “polyreactivity (PSR sort gate)” value was “high polyreactivity”.
With “QVQLVESGGGLVQAGGSLRLSCAASGIFGWNTMGWYRQAPGTERELVATISWGGGTTYYADSVKGRFTISRDNAKNTVYLQMNSLKPEDTAVYYCAKVYAVRIGLRYYYWGQGTQVTVSS” the “polyreactivity (PSR sort gate)” value was “low polyreactivity”.
In the case of “QVQLVESGGGLVQAGGSLRLSCAASGIFLGYAMGWYRQAPGKERELVAGISSGGGTYYADSVKGRFTISRDNAKNTVYLQMNSLKPEDTAVYYCNAASQYTFDSSFDYWGQGTQVTVSS”, the “polyreactivity (PSR sort gate)” value was “low polyreactivity”.
With “QVQLVESGGGLVQAGGSLRLSCAASGIFRGYAMGWYRQAPGKEREFVAAISRTGGGTYYADSVKGRFTISRDNAKNTVYLQMNSLKPEDTAVYYCAAVRKYDGQKFGYWGQGTQVTVSS” the “polyreactivity (PSR sort gate)” value was “low polyreactivity”.
In the case of “QVQLVESGGGLVQAGGSLRLSCAASGIFWYNMGWYRPAPGKERELVAAITASGGSRTYYADSVKGRFTISRDNAKNTVYLQMNSLKPEDTAVYYCAASSYSYLYYSWGQGTQVTVSS”, the “polyreactivity (PSR sort gate)” value was “high polyreactivity”.
For “QVQLVESGGGLVQAGGSLRLSCAASGIFWYYAMGWYRQAPGKERELVAAISSGGSTYYADSVKGRFTISRDNAKNTVSLQMNSLKPEDTAVYYCNAVYWKASHYGYGYWGQGTQVTVSS”, the “polyreactivity (PSR sort gate)” value was “high polyreactivity”.
In the case of “QVQLVESGGGLVQAGGSLRLSCAASGIFYFYAMGWYRQAPGKERELVAAITSSGGNTTYADSVKGRFTISRDNAKNTVYLQMNSLKPEDTAVYYCNADYFQDRLDYWGQGTQVTVSS”, the “polyreactivity (PSR sort gate)” value was “low polyreactivity”.
